Test results taken from patent US20250090663A1 (MYELOID THERAPEUTICS, published 2025).
Numbering of substitutions follows the chain as printed. Blank lines part the entries; values can stand above or below the binder they belong to.

Tests used:
[1] = biological target: T1, IL13RA2 Protein, Human, Recombinant (ECD)-His tag (human, UniProt Q14627 27-343); test: BLI; biotinylated VHH captured on streptavidin biosensor, antigen 1 uM in solution
T1 construct: extracellular domain; also called human recombinant protein extracellular domain; human IL13Ra2-His6
T1 sequence: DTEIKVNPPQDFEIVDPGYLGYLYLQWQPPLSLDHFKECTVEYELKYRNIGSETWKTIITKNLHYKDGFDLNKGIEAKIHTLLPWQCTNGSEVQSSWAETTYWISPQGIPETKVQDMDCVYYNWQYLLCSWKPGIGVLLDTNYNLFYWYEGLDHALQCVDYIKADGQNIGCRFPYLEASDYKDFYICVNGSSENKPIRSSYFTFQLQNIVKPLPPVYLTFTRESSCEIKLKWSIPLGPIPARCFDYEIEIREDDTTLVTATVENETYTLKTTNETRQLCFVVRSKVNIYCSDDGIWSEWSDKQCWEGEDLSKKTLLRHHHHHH
Description: (§1) Binding Affinity for the VH domains with IL13Rα2 are calculated as follows: Biotinylated VHHs were individually captured on streptavidin biosensors. VHH-captured biosensors were dipped in wells containing antigen and the binding response was measured. Biosensors were later dipped in buffer wells to observe the dissociation of bound antigen from captured VHH. (Schematic representation of the process depicted in FIG. 26, upper left corner). In this case, the IL13RA2 protein used was human recombinant protein extracellular domain; Rhesus macaque IL13R alpha 2 protein with His tag or mouse recombinant His tagged protein or irrelevant protein His tagged were used as controls.

[2] = biological target: T2, IL13RA2 Protein, Rhesus macaque, His tag (Rhesus macaque, UniProt A0A5F8A9D9 27-343); test: as above
T2 construct: the summary sentence says cynomolgous; also called Rhesus macaque IL13R alpha 2 protein with His tag; cynomolgous IL 13RA2 (as the text calls it); not shown: His tag
T2 sequence: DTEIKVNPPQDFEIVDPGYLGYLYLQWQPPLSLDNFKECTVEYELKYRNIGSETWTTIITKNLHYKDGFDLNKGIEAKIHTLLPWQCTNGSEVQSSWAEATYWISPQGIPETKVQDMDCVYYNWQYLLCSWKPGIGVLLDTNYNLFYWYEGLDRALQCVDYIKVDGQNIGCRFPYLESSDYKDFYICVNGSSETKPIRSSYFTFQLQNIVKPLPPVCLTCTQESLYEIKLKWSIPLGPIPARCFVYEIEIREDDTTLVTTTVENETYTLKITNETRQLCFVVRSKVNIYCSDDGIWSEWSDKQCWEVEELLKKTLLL
Description: as §1

[3] = biological target: T3, IL13RA2 Protein, mouse Recombinant- His tag (mouse, UniProt O88786 22-334, limits assumed); test: as above
T3 construct: also called mouse recombinant His tagged protein; not shown: His tag
T3 sequence (looked up): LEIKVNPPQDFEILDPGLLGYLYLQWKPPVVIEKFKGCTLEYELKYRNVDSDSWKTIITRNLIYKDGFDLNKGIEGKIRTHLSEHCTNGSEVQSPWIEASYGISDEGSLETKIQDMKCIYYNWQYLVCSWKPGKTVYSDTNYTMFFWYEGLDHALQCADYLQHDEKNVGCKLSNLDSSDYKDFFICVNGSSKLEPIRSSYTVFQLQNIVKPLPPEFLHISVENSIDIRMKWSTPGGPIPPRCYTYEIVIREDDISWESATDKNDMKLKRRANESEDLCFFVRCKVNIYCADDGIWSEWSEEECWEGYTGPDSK
Description: as §1

Human CD70 mFc = biological target: T4, Human CD70 mFc (human, UniProt P32970 39-193); test: BLI, single point; His-tagged VHH captured on HIS1K biosensor, antigen 1 uM in solution
T4 construct: not shown: mFc
T4 sequence (looked up): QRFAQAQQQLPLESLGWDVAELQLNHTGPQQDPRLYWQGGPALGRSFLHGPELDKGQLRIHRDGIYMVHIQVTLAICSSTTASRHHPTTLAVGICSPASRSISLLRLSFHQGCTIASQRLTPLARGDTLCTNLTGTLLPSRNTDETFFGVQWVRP
Description: (§2) Next the polypeptides were characterized for CD70 binding kinetics, e.g. by affinity measurements. An affinity measurement method used in this study is illustrated in FIG. 1A, left bottom graphic image. Briefly, His-tagged VHH constructs were individually captured on HIS1K biosensors. VHH-captured biosensors were dipped in wells containing antigen and binding responses were measured. Biosensors were later dipped in buffer wells to observe the dissociation of bound antigen from the VHHs. Biosensors were regenerated and similar binding kinetic assays were performed for subsequent antigens. Single point KD analysis using BioLayer interferometry with a soluble VHH format was undertaken.

Mouse CD70 mFc = biological target: T5, Mouse CD70 mFc (mouse, UniProt O55237 45-195); test: as above
T5 construct: not shown: mFc
T5 sequence (looked up): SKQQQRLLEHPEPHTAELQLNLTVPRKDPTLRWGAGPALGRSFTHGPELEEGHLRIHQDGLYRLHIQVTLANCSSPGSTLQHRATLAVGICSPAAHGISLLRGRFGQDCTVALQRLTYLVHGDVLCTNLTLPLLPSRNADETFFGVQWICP
Description: as §2

[4] = biological target: T2, IL13RA2 Protein, Rhesus macaque, His tag; test: BLI; summary of Tables 9A-9C
Description: as §1

[5] = biological target: T3, IL13RA2 Protein, mouse Recombinant- His …; test: BLI; summary of Tables 9A-9C
Description: as §1

B1: VH52f3 (VHH)
VHH: QVQLQESGGGLVQPGGSLRLSCEVSGSIFSINRMAWYRQVPEKEREMVAQITYGDTIKYYGSAKGRFTISRDSAKNAVYLQMNSLKPEDTAVYRCNIVGVLTTGHYEDSFWGQGTQVTVPS
modifications: biotinylated (site not stated)
notes: Expressed in E. coli and 6xHIS purified; also called VH52f3 Biotin; Anti-IL13Rα2 VH52
Binding Response [1]: 0.87 nm
Kd [1]: ≤ 0.806 nM
koff [1]: ≤ 0.0001 s⁻¹
t½ [1]: ≥ 116 min
Binding Response [2]: 1.13 nm
Kd [2]: ≤ 1.49 nM
koff [2]: ≤ 0.0001 s⁻¹
kon [2]: 67000 M⁻¹ s⁻¹
t½ [2]: ≥ 116 min
Binding Response [3]: -0.02 nm

B4: IL13Ra2_2TIG4_f3 (VHH)
VHH: QVQLQESGGGLVQPGGSLRLSCAASGRTYGMGWFRQAPGKEREFVAVGVWSSGNTYYADFARGRFTISRDNAKNTVYLQMDSLKPEDTAVYYCAAPRYSSYTTYHAAYDYWGPGTQVTVSS
modifications: biotinylated (site not stated)
notes: Expressed in E. coli and 6xHIS purified; also called IL13Ra2_2TIG4_f3-Biotin
Binding Response [1]: 0.72 nm
Kd [1]: 5.02 nM
koff [1]: 0.000697 s⁻¹
t½ [1]: 17 min
Binding Response [2]: 1.17 nm
Kd [2]: 3.62 nM
koff [2]: 0.000388 s⁻¹
kon [2]: 107000 M⁻¹ s⁻¹
t½ [2]: 30 min
Binding Response [3]: -0.02 nm

B5: Anti-CD70 VHH, 3HCS92 (VHH)
VHH: QVQLQESGGGLVQAGGSLRLSCAAPRSIFSINAMGWYRQAPGKQRELVAAITSGGSPTYADSVKGRFTISRDNAKNTVYLQMNSLKAEDTAVYYCATGPYGLDNALDAWGQGTQVTVSS
notes: Soluble His-tagged VHH monomer captured on HIS1K biosensors; also called H1; H1 (WT)
Binding Response (Human CD70 mFc): 0.87 nm
Kd (Human CD70 mFc): 5.29 nM
koff (Human CD70 mFc): 0.000377 s⁻¹
kon (Human CD70 mFc): 71300 M⁻¹ s⁻¹
t½ (Human CD70 mFc): 31 min
Binding Response (Mouse CD70 mFc): 0.03 nm
Kd (Mouse CD70 mFc): 334 nM
koff (Mouse CD70 mFc): 0.000427 s⁻¹
kon (Mouse CD70 mFc): 1280 M⁻¹ s⁻¹
t½ (Mouse CD70 mFc): 27 min

B7: Anti-CD70 VHH clone 3CEK186 (VHH)
VHH: QVQLQESGGGLVQTGGSLRLACTASGFTFDDYAIAWFRQAPGKEREFVAAISWSGGTTHYADSVKGRFTISRDNAKNTLYLQMSSLKPEDTAVYFCAKSLRSSPSSRWFGSRGQGTQVTVSS
notes: Soluble His-tagged VHH monomer captured on HIS1K biosensors; also called C1; C1 (WT)
Binding Response (Mouse CD70 mFc): 0.01 nm

Continued by falling Kd [1], values first:

Binding Response [1]: 0.92 nm
Kd [1]: 4.65 nM
koff [1]: 0.000941 s⁻¹
t½ [1]: 12.3 min
Binding Response [2]: 0.96 nm
Kd [2]: 27.1 nM
koff [2]: 0.00164 s⁻¹
kon [2]: 60500 M⁻¹ s⁻¹
t½ [2]: 7.04 min
Binding Response [3]: -0.04 nm
B8: VH43f2 (VHH)
VHH: QVQLQESGGGLVQPGGSLRLSCTASGSIRGIGYMAWGRQGPGKPRELIATINSAGDTNYAESVKGRFTVSRDNAENTLYLQMNNLKSEDTAVYYCNARPGLQSYWGQGTQVTVSS
modifications: biotinylated (site not stated)
notes: Expressed in E. coli and 6xHIS purified; also called VH43f2-Biotin; Anti-IL13Rα2 VH43

fold decrease in affinity compared to human counterpart [4]: ~2 fold
fold decrease in affinity compared to human counterpart [5]: ~2 fold
Binding Response [1]: 1.36 nm
Kd [1]: 1.84 nM
koff [1]: 0.000397 s⁻¹
t½ [1]: 29 min
Binding Response [2]: 0.93 nm
Kd [2]: 112 nM
koff [2]: 0.00485 s⁻¹
kon [2]: 41700 M⁻¹ s⁻¹
t½ [2]: 2.4 min
Binding Response [3]: 1.17 nm
Kd [3]: 33.7 nM
koff [3]: 0.00485 s⁻¹
kon [3]: 140000 M⁻¹ s⁻¹
t½ [3]: 2.46 min
B6: VH57f5 (VHH)
VHH: QVQLQESGGGLVQPGGSLRLSCAASGSIFNTNGMGWYRQAPGKQRERVAGISSGGNTVYAASVEGRFTISRDNAKNTGYLQMNNLKPEDTAVYYCRVAGRQDDYWGQGTQVTVSS
modifications: biotinylated (site not stated)
notes: Expressed in E. coli and 6xHIS purified; also called VH57f5 Biotin; Anti-IL13Rα2 VH57

Binding Response [1]: 0.67 nm
Kd [1]: 1.3 nM
koff [1]: 0.000133 s⁻¹
t½ [1]: 87 min
Binding Response [2]: 1.02 nm
Kd [2]: ≤ 1.44 nM
koff [2]: ≤ 0.0001 s⁻¹
kon [2]: 69300 M⁻¹ s⁻¹
t½ [2]: ≥ 116 min
Binding Response [3]: -0.01 nm
B3: VH36f1 (VHH)
VHH: QVQLQESGGGSVQPGGSLRLSCAASGINISSDVMEWFRQGPGEQRELVAHITTNSRTEYADFVKGRFTISRANAKNTLYLQMNGLKPEDTALYYCALRRGGRILWGQGTQVTVSS
modifications: biotinylated (site not stated)
notes: Expressed in E. coli and 6xHIS purified; also called VH36f1 Biotin; Anti-IL13Rα2 VH36

Binding Response [1]: 1.04 nm
Kd [1]: 0.89 nM
koff [1]: 0.000118 s⁻¹
t½ [1]: 98 min
Binding Response [2]: 1.35 nm
Kd [2]: ≤ 1.42 nM
koff [2]: ≤ 0.0001 s⁻¹
kon [2]: 70200 M⁻¹ s⁻¹
t½ [2]: ≥ 116 min
Binding Response [3]: -0.01 nm
B2: VH53f3 (VHH)
VHH: B1 VHH with F29S, E42G, R71K, D108N, P120S
modifications: biotinylated (site not stated)
notes: Expressed in E. coli and 6xHIS purified; also called VH53f3 Biotin; Anti-IL13Rα2 VH53
